{"source": "paper PMC4063770", "about": "“A Dimerized HMX1 Inhibits EPHA6/epha4b in Mouse and Zebrafish Retinas” (PLoS ONE, 2014)", "proteins": {"B1": {"name": "HA-tagged wild-type HMX1 (natural protein)", "chain": "not shown", "notes": "HMX1 (NKX5-3), wild type; also called HA-HMX1; source: HEK 293T, transfected, in lysate"}}, "target": "the molecule itself", "assay": "native gel or EMSA; lysate in non-denaturing lysis buffer (20 mM Tris-HCl, 137 mM NaCl, 10% glycerol, 1% Triton X-100, 2 mM EDTA, pH 8.0), 5 ug on a 4-15% gel run without SDS, compared with a denaturing gel; Western blot with anti-HA", "data": [{"protein": "B1", "values": [{"measurement": "stoichiometry N", "value": 2}]}]}
